Assay results: ChEMBL document CHEMBL1138864, “Synthesis of novel caspase inhibitors for characterization of the active caspase proteome in vitro and in vivo” (J Med Chem, 2006)

Assays:
Settings in all cases: Homo sapiens
[1] = substrate: Cc1cccc(C)c1C(=O)OCC(=O)[C@H](CC(=O)O)NC(=O)[C@H](CCCCNC(=O)CCCCCNC(=O)CCCCC1SC[C@@H]2NC(=O)N[C@H]12)NC(=O)[C@H](CCC(=O)O)NC(=O)OCc1ccccc1
Description: Inhibition of human caspase 7

[2] = substrate: Cc1cccc(C)c1C(=O)OCC(=O)[C@H](CC(=O)O)NC(=O)[C@H](CCCCNC(=O)CCCCCNC(=O)CCCCC1SC[C@@H]2NC(=O)N[C@H]12)NC(=O)[C@H](CCC(=O)O)NC(=O)OCc1ccccc1; remark: listed apart in the source
Description: Inhibition of human caspase 1

[3] = substrate: Cc1cccc(C)c1C(=O)OCC(=O)[C@H](CC(=O)O)NC(=O)[C@H](CCCCNC(=O)CCCCCNC(=O)CCCCC1SC[C@@H]2NC(=O)N[C@H]12)NC(=O)[C@H](CCC(=O)O)NC(=O)OCc1ccccc1; remark: listed apart in the source
Description: Inhibition of human caspase 4

[4] = substrate: Cc1cccc(C)c1C(=O)OCC(=O)[C@H](CC(=O)O)NC(=O)[C@H](CCCCNC(=O)CCCCCNC(=O)CCCCC1SC[C@@H]2NC(=O)N[C@H]12)NC(=O)[C@H](CCC(=O)O)NC(=O)OCc1ccccc1; remark: listed apart in the source
Description: Inhibition of human caspase 5

[5] = substrate: Cc1cccc(C)c1C(=O)OCC(=O)[C@H](CC(=O)O)NC(=O)[C@H](CCCCNC(=O)CCCCCNC(=O)CCCCC1SC[C@@H]2NC(=O)N[C@H]12)NC(=O)[C@H](CCC(=O)O)NC(=O)OCc1ccccc1; remark: listed apart in the source
Description: Inhibition of human caspase 6

[6] = substrate: Cc1cccc(C)c1C(=O)OCC(=O)[C@H](CC(=O)O)NC(=O)[C@H](CCCCNC(=O)CCCCCNC(=O)CCCCC1SC[C@@H]2NC(=O)N[C@H]12)NC(=O)[C@H](CCC(=O)O)NC(=O)OCc1ccccc1; remark: listed apart in the source
Description: Inhibition of human caspase 3

[7] = substrate: Cc1cccc(C)c1C(=O)OCC(=O)[C@H](CC(=O)O)NC(=O)[C@H](CCCCNC(=O)CCCCCNC(=O)CCCCC1SC[C@@H]2NC(=O)N[C@H]12)NC(=O)[C@H](CCC(=O)O)NC(=O)OCc1ccccc1; remark: listed apart in the source
Description: Inhibition of human caspase 8

[8] = substrate: Cc1cccc(C)c1C(=O)OCC(=O)[C@H](CC(=O)O)NC(=O)[C@H](CCCCNC(=O)CCCCCNC(=O)CCCCC1SC[C@@H]2NC(=O)N[C@H]12)NC(=O)[C@H](CCC(=O)O)NC(=O)OCc1ccccc1; remark: listed apart in the source
Description: Inhibition of human caspase 2

B1: Caspase-7 (Homo sapiens), P55210 (protein)
chain: MADDQGCIEEQGVEDSANEDSVDAKPDRSSFVPSLFSKKKKNVTMRSIKTTRDRVPTYQYNMNFEKLGKCIIINNKNFDKVTGMGVRNGTDKDAEALFKCFRSLGFDVIVYNDCSCAKMQDLLKKASEEDHTNAACFACILLSHGEENVIYGKDGVTPIKDLTAHFRGDRCKTLLEKPKLFFIQACRGTELDDGIQADSGPINDTDANPRYKIPVEADFLFAYSTVPGYYSWRSPGRGSWFVQALCSILEEHGKDLEIMQILTRVNDRVARHFESQSDDPHFHEKKQIPCVVSMLTKELYFSQ
**Q.** Which Km [1] does the source give for B1 here?
**A.** The Km was 230 µM.

B2: Caspase-1 (Homo sapiens), P29466 (protein)
chain: MADKVLKEKRKLFIRSMGEGTINGLLDELLQTRVLNKEEMEKVKRENATVMDKTRALIDSVIPKGAQACQICITYICEEDSYLAGTLGLSADQTSGNYLNMQDSQGVLSSFPAPQAVQDNPAMPTSSGSEGNVKLCSLEEAQRIWKQKSAEIYPIMDKSSRTRLALIICNEEFDSIPRRTGAEVDITGMTMLLQNLGYSVDVKKNLTASDMTTELEAFAHRPEHKTSDSTFLVFMSHGIREGICGKKHSEQVPDILQLNAIFNMLNTKNCPSLKDKPKVIIIQACRGDSPGVVWFKDSVGVSGNLSLPTTEEFEDDAIKKAHIEKDFIAFCSSTPDNVSWRHPTMGSVFIGRLIEHMQEYACSCDVEEIFRKVRFSFEQPDGRAQMPTTERVTLTRCFYLFPGH
**Q.** Which Km [2] does the source give for B2 here?
**A.** The Km was 100 µM.

B3: Caspase-4 (Homo sapiens), P49662 (protein)
chain: MAEGNHRKKPLKVLESLGKDFLTGVLDNLVEQNVLNWKEEEKKKYYDAKTEDKVRVMADSMQEKQRMAGQMLLQTFFNIDQISPNKKAHPNMEAGPPESGESTDALKLCPHEEFLRLCKERAEEIYPIKERNNRTRLALIICNTEFDHLPPRNGADFDITGMKELLEGLDYSVDVEENLTARDMESALRAFATRPEHKSSDSTFLVLMSHGILEGICGTVHDEKKPDVLLYDTIFQIFNNRNCLSLKDKPKVIIVQACRGANRGELWVRDSPASLEVASSQSSENLEEDAVYKTHVEKDFIAFCSSTPHNVSWRDSTMGSIFITQLITCFQKYSWCCHLEEVFRKVQQSFETPRAKAQMPTIERLSMTRYFYLFPGN
**Q.** With B3 as the protein, how does the Km [3] read?
**A.** The Km was 1100 µM.

B4: Caspase-5 (Homo sapiens), P51878 (protein)
chain: MAEDSGKKKRRKNFEAMFKGILQSGLDNFVINHMLKNNVAGQTSIQTLVPNTDQKSTSVKKDNHKKKTVKMLEYLGKDVLHGVFNYLAKHDVLTLKEEEKKKYYDTKIEDKALILVDSLRKNRVAHQMFTQTLLNMDQKITSVKPLLQIEAGPPESAESTNILKLCPREEFLRLCKKNHDEIYPIKKREDRRRLALIICNTKFDHLPARNGAHYDIVGMKRLLQGLGYTVVDEKNLTARDMESVLRAFAARPEHKSSDSTFLVLMSHGILEGICGTAHKKKKPDVLLYDTIFQIFNNRNCLSLKDKPKVIIVQACRGEKHGELWVRDSPASLALISSQSSENLEADSVCKIHEEKDFIAFCSSTPHNVSWRDRTRGSIFITELITCFQKYSCCCHLMEIFRKVQKSFEVPQAKAQMPTIERATLTRDFYLFPGN
**Q.** B4 was tested. Which Km [4] did it give?
**A.** Its Km is 2500 µM.

B5: Caspase-6 (Homo sapiens), P55212 (protein)
chain: MSSASGLRRGHPAGGEENMTETDAFYKREMFDPAEKYKMDHRRRGIALIFNHERFFWHLTLPERRGTCADRDNLTRRFSDLGFEVKCFNDLKAEELLLKIHEVSTVSHADADCFVCVFLSHGEGNHIYAYDAKIEIQTLTGLFKGDKCHSLVGKPKIFIIQACRGNQHDVPVIPLDVVDNQTEKLDTNITEVDAASVYTLPAGADFLMCYSVAEGYYSHRETVNGSWYIQDLCEMLGKYGSSLEFTELLTLVNRKVSQRRVDFCKDPSAIGKKQVPCFASMLTKKLHFFPKSN
**Q.** Which Km [5] does the source give for B5 here?
**A.** The Km was 220 µM.

B6: Caspase-3 (Homo sapiens), P42574 (protein)
chain: MENTENSVDSKSIKNLEPKIIHGSESMDSGISLDNSYKMDYPEMGLCIIINNKNFHKSTGMTSRSGTDVDAANLRETFRNLKYEVRNKNDLTREEIVELMRDVSKEDHSKRSSFVCVLLSHGEEGIIFGTNGPVDLKKITNFFRGDRCRSLTGKPKLFIIQACRGTELDCGIETDSGVDDDMACHKIPVEADFLYAYSTAPGYYSWRNSKDGSWFIQSLCAMLKQYADKLEFMHILTRVNRKVATEFESFSFDATFHAKKQIPCIVSMLTKELYFYH
**Q.** Which Km [6] does the source give for B6 here?
**A.** Its Km is 74 µM.

B7: Caspase-8 (Homo sapiens), Q14790 (protein)
chain: MDFSRNLYDIGEQLDSEDLASLKFLSLDYIPQRKQEPIKDALMLFQRLQEKRMLEESNLSFLKELLFRINRLDLLITYLNTRKEEMERELQTPGRAQISAYRVMLYQISEEVSRSELRSFKFLLQEEISKCKLDDDMNLLDIFIEMEKRVILGEGKLDILKRVCAQINKSLLKIINDYEEFSKERSSSLEGSPDEFSNGEELCGVMTISDSPREQDSESQTLDKVYQMKSKPRGYCLIINNHNFAKAREKVPKLHSIRDRNGTHLDAGALTTTFEELHFEIKPHDDCTVEQIYEILKIYQLMDHSNMDCFICCILSHGDKGIIYGTDGQEAPIYELTSQFTGLKCPSLAGKPKVFFIQACQGDNYQKGIPVETDSEEQPYLEMDLSSPQTRYIPDEADFLLGMATVNNCVSYRNPAEGTWYIQSLCQSLRERCPRGDDILTILTEVNYEVSNKDDKKNMGKQMPQPTFTLRKKLVFPSD
**Q.** Which Km [7] does the source give for B7 here?
**A.** Its Km is 140 µM.

B8: Caspase-2 (Homo sapiens), P42575 (protein)
chain: MAAPSAGSWSTFQHKELMAADRGRRILGVCGMHPHHQETLKKNRVVLAKQLLLSELLEHLLEKDIITLEMRELIQAKVGSFSQNVELLNLLPKRGPQAFDAFCEALRETKQGHLEDMLLTTLSGLQHVLPPLSCDYDLSLPFPVCESCPLYKKLRLSTDTVEHSLDNKDGPVCLQVKPCTPEFYQTHFQLAYRLQSRPRGLALVLSNVHFTGEKELEFRSGGDVDHSTLVTLFKLLGYDVHVLCDQTAQEMQEKLQNFAQLPAHRVTDSCIVALLSHGVEGAIYGVDGKLLQLQEVFQLFDNANCPSLQNKPKMFFIQACRGDETDRGVDQQDGKNHAGSPGCEESDAGKEKLPKMRLPTRSDMICGYACLKGTAAMRNTKRGSWYIEALAQVFSERACDMHVADMLVKVNALIKDREGYAPGTEFHRCKEMSEYCSTLCRHLYLFPGHPPT
**Q.** For B8, which Km [8] is on record?
**A.** The Km was 560 µM.
